Ends that are not written are not given here.
What was measured:
[1] = target: T1, Tau protein in fiber form (preparation of htau40 enriched with Tau fibers, 72 h fibrillation with heparin) (Homo sapiens (Human), UniProt P10636 2-758); test: ELISA on preparation enriched with Tau fibers
T1 construct: Fibrillar aggregate of full-length htau40; also called Tau-F (Tau fibers); the fibers

[2] = target: T2, Tau protein in oligomer form (preparation of htau40 enriched with Tau oligomers, 48 h fibrillation with … (Homo sapiens (Human), UniProt P10636 2-758)); test: ELISA on preparation enriched with Tau oligomers
T2 construct: Oligomeric aggregate of full-length htau40; also called the oligomers; low-molecular-weight tau polymers

[3] = target: T1, Tau protein in fiber form (preparation …); test: ELISA, 2C5 titrated on a preparation enriched with Tau fibers (Tau-F)
[4] = target: T3, truncated Tau protein in fiber form (polymerized R3 peptide) (also: polymerized (fiber form)); test: ELISA on polymerized R3 peptide
T3 construct: also called R3 peptide fibers; Mimetics (the R3 region of polymerized Tau)
T3 peptide: VQIVYKPVDLSKVTSKCG

[5] = target: T3, truncated Tau protein in fiber form …; test: ELISA, unlabeled 2C5 titrated on polymers of the R3 sequence of Tau (R3 Fibers), PBS with 1% BSA, pH 7.5; PBS wells as control
Procedure: (§1) The ELISAs are carried out before (FIG. 5) and after (FIG. 6) radiolabeling. It is noted that, after radiolabeling, the ligand retains good affinity for its target (FIG. 6).

[6] = target: T3, truncated Tau protein in fiber form …; test: ELISA, 2C5 titrated on polymerized R3 peptide (Mimes)
[7] = target: T2, Tau protein in oligomer form …; test: ELISA, 2C5 titrated on a preparation enriched with Tau oligomers (Tau-O)
[8] = target: T4, native Tau protein (monomeric form) (Homo sapiens (Human), UniProt P10636 2-758); test: ELISA, 2C5 titrated on native Tau (Tau-N)
T4 construct: also called Tau-N (native taus); Tau in monomer form

[9] = target: T3, truncated Tau protein in fiber form …; test: ELISA-format assay with 2C5 radiolabeled with iodine 125 on polymers of the R3 sequence of Tau, CPM readout (sheet title: RIA 125I 2C5), PBS with 1% BSA, pH 7.5; PBS wells as control
Procedure: as §1

T1 sequence (P10636 other isoform, or with tags, fused parts or gaps limits assumed): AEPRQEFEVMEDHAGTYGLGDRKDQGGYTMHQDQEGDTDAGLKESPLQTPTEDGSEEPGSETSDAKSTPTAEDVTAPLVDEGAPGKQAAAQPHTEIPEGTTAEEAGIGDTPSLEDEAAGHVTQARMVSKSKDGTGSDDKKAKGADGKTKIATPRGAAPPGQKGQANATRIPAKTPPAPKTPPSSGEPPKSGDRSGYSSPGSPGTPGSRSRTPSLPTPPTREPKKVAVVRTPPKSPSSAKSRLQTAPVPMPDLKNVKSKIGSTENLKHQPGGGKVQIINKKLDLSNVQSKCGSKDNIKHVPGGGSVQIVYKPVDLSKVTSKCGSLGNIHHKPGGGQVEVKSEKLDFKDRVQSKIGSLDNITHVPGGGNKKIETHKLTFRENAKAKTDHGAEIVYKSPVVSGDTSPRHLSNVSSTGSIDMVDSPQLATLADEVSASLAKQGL
T2 sequence (P10636 other isoform, or with tags, fused parts or gaps limits assumed): as above
T4 sequence (P10636 other isoform, or with tags, fused parts or gaps limits assumed): as above

B1: 2C5 nanobody (VHH) with C-terminal myc and six histidine residues tag (VHH)
VHH: QVQLVQSGGGLVQAGGSLRLSCAASGRTFSSDTLAWFRQAPGKEREFVASISPSGGVTYYEDSVKGRFTISRDNSKNTVLLQMNSLTPEDTAVYYCNRDPKYGNTRYWGQGTQVTVSS
notes: also called 2C5 Nb; 2C5 (VHH)
B1 was tested, and the Kd [1] was 6 nM, the Kd [2] was 5 nM and the Kd [3] was 5.02 nM. The Kd [4] was 50 nM, the Kd [5] was 14.4 nM and the “EC50 (read off the curve)” value [6] was roughly 50 nM. The Kd [6] was 51.8 nM, the Kd [7] was 6.28 nM and the Kd [8] was 1790 nM.

B2: 2C5 nanobody radiolabeled with iodine 125 (VHH)
VHH: B1 VHH
modifications: radiolabeled with iodine 125 (site not stated)
With B2 the Kd [9] was 162 nM.

— patent US20190263898A1 (UNIVERSITE GRENOBLE ALPES, published 2019)
